Assay results published in paper PMC9524831 (Science Advances, 2022).

Target: HA-GluA1 (mouse AMPA receptor subunit GluA1) (mouse, UniProt P23818 19-907)
Assay: cell-based or functional assay

Chain of HA-GluA1 (mouse AMPA receptor subunit GluA1) (P23818 19-907): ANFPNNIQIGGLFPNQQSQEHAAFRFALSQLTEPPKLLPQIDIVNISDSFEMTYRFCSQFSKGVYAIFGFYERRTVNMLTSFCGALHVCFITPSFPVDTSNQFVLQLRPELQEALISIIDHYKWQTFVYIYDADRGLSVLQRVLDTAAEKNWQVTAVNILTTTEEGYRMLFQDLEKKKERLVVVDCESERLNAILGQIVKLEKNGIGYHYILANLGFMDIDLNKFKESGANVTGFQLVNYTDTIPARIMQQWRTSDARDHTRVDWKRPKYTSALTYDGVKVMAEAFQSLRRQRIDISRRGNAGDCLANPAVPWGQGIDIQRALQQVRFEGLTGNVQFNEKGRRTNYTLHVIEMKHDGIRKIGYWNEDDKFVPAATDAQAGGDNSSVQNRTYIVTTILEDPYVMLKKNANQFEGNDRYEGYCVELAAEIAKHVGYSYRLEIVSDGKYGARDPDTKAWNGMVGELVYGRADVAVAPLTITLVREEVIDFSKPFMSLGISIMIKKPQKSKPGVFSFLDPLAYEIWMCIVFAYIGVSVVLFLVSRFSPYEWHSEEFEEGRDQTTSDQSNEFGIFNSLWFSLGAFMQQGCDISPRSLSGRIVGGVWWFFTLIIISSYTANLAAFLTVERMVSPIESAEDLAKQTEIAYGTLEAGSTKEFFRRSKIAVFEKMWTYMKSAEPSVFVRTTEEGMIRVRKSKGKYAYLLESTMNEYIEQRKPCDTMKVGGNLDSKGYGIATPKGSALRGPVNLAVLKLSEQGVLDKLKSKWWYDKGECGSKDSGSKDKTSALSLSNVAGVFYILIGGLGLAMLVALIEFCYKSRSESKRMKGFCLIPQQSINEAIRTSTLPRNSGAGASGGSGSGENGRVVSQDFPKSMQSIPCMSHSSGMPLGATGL

B1: RNF220(R363Q) (enzyme, mouse, UniProt Q6PDX6 1-566, looked up)
chain: MDLHRAAFKMENSSYLPNPLASPALMVLASTAEASRDASIPCQQPRPFGVPVSVDKDVHIPFTNGSYTFASMYHRQGGVPGTFANRDFPPSLLHLHPQFAPPNLDCTPISMLNHSGVGAFRPFASTEDRESYQSAFTPAKRLKNCHDTESPHLRFSDADGKEYDFGTQLPSSSPGSLKVDDTGKKIFAVSGLISDRETSSSPEDRNDRCKKKAVALFDSQAPLCPICQVLLRPSELQEHMEQELEQLAQLPASKNSLLKDAMAPGTPKSLLLSASIKREGDSPTASPHSSATEDLHHSDRYQTFLRVRANRQTRLNARIGKMKRRKQDEGQREGSCMAEDDAVDIEHADSNRFEEYEWCGQKQIRATTLLEGGFRGSGFVMCSGKENPDSDADLDVDGDDTLEYGKPQYTEADVIPCTGEEPGEAKEREALRGAVLNGGPPSTRITPEFSKWASDEMPSTSNGEGSKQEAMQKTCKNSDIEKITEESAVTTFEALKARVRELERQLSRGDRYKCLICMDSYSMPLTSIQCWHVHCEECWLRTLGAKKLCPQCNTITAPGDLRRIYL
GluA1 polyubiquitination level relative to wild-type RNF220 transfection: 0.34

B2: RNF220(R365Q) (enzyme, mouse, UniProt Q6PDX6 1-566, looked up)
chain: MDLHRAAFKMENSSYLPNPLASPALMVLASTAEASRDASIPCQQPRPFGVPVSVDKDVHIPFTNGSYTFASMYHRQGGVPGTFANRDFPPSLLHLHPQFAPPNLDCTPISMLNHSGVGAFRPFASTEDRESYQSAFTPAKRLKNCHDTESPHLRFSDADGKEYDFGTQLPSSSPGSLKVDDTGKKIFAVSGLISDRETSSSPEDRNDRCKKKAVALFDSQAPLCPICQVLLRPSELQEHMEQELEQLAQLPASKNSLLKDAMAPGTPKSLLLSASIKREGDSPTASPHSSATEDLHHSDRYQTFLRVRANRQTRLNARIGKMKRRKQDEGQREGSCMAEDDAVDIEHADSNRFEEYEWCGQKRIQATTLLEGGFRGSGFVMCSGKENPDSDADLDVDGDDTLEYGKPQYTEADVIPCTGEEPGEAKEREALRGAVLNGGPPSTRITPEFSKWASDEMPSTSNGEGSKQEAMQKTCKNSDIEKITEESAVTTFEALKARVRELERQLSRGDRYKCLICMDSYSMPLTSIQCWHVHCEECWLRTLGAKKLCPQCNTITAPGDLRRIYL
GluA1 polyubiquitination level relative to wild-type RNF220 transfection: 0.3
